This passage reports stability_or_folding results from article PMC5053164.

The data set can be described thus: aggregation after overnight glycosidase digestion. The following applies: glycan lost; control: untreated.

B1: DORN1 extracellular domain (atDORN1-ECD; LecRK-I.9): PNGase F (protein)
parent chain: MARWLLQILIISSLHLSSVSSQQETSFVYESFLDRQNLYLDKSAIVLPSGLLQLTNASEHQMGHAFHKKPIEFSSSGPLSFSTHFVCALVPKPGFEGGHGIVFVLSPSMDFTHAESTRYLGIFNASTNGSSSYHVLAVELDTIWNPDFKDIDHNHVGIDVNSPISVAIASASYYSDMKGSNESINLLSGNPIQVWVDYEGTLLNVSVAPLEVQKPTRPLLSHPINLTELFPNRSSLFAGFSAATGTAISDQYILWWSFSIDRGSLQRLDISKLPEVPHPRAPHKKVSTLIILLPVCLAILVLAVLAGLYFRRRRKYSEVSETWEKEFDAHRFSYRSLFKATKGFSKDEFLGKGGFGEVYRGNLPQGREIAVKRVSHNGDEGVKQFVAEVVSMRCLKHRNLVPLFGYCRRKRELLLVSEYMPNGSLDEHLFDDQKPVLSWSQRLVVVKGIASALWYLHTGADQVVLHRDVKASNIMLDAEFHGRLGDFGMARFHEHGGNAATTAAVGTVGYMAPELITMGASTGTDVYAFGVFMLEVTCGRRPVEPQLQVEKRHMIKWVCECWKKDSLLDATDPRLGGKFVAEEVEMVMKLGLLCSNIVPESRPTMEQVVLYLNKNLPLPDFSPYTLGIGTFAPVLVDASSLVVSSASWSLSGPSMSSSSPNHSPYAWQSTDQPWGQTIDTKNSLHIVAEPEKPSPAVKMVTLPAEDPQSNHSSISSQRVQPVKREKRRLHQILVAFPWINKQYFKLGLPKHIVHVSLFFFLQLARL
B1: the stability_or_folding result was “decreases”.

B2: DORN1 extracellular domain (atDORN1-ECD; LecRK-I.9): Endo H (protein)
parent chain: B1 parent chain
For the protein B2, the stability_or_folding entry is “decreases”.
